How the values were obtained:
[1] = molecular target: OptoMB_(C450V), light-insensitive, His-tagged, purified (Avena sativa) (UniProt O49003); test: BLI
[2] = molecular target: lit-stabilized OptoMB variant (group of the BLI measurements in the light); test: BLI

Sequence of YFP-SH2, purified (fusion of yellow fluorescent protein and SH2) (P00519 121-232): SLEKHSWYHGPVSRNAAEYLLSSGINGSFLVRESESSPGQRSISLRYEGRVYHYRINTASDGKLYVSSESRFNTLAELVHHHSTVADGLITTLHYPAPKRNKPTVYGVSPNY

- Kd [1]: 70 nM
- Kd [2]: 11.2 µM
- fold change of kon, dark against light [2]: < 46 fold
- fold increase of koff, light against dark [2]: < 10 fold
Substance: YFP-SH2, purified (fusion of yellow fluorescent protein and SH2) (from UniProt P00519 121-232) (domain or fragment)

— article doi:10.1101/2020.03.08.831909
